For the experiment, the target named is Fzd2 pTyr552 peptide (phosphorylated 18-mer). Briefly: SPR.

For orientation: pKd means −log10 of the Kd, conventionally taken in molar units.

pKd: −log10 of the molar value.

“GST-FynSH2 (SH2 domain of Fyn) (from UniProt P06241 149-246) (domain or fragment)” gave a pKd of 8.68.

The values above are taken from PMC4243058.
